# Key:
# Assay in all cases: fluorescence polarisation
# [1] = target: HIM-3 closure motif peptide, unmodified (wild type) (C. elegans)
# [2] = target: HIM-3 closure motif peptide with the S282A substitution (C. elegans)
# [3] = target: HIM-3 closure motif peptide phosphorylated at Tyr279 (C. elegans)
substance,measurement,setting,value
HTP-2 protein (full length) (natural protein),Kd,[1],5.8 µM
same,Kd,[2],11.3 µM
same,Kd,[3],16.1 µM

# Source: doi:10.1101/2020.07.01.182063
